Data as given in the supplement of paper PMC10567573.

B1: SNX3 (parent)
chain: FLRQLPFRGDDGIFDDNFIEERKQ
B2: YPEL3 (parent)
chain: SKPKTFQAYLDDCHRRYSCAHCRA
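Note: lentivirally expressed fusions sorted by FACS into six bins by GFP to DsRed ratio, PSI derived from sequencing read proportions per bin multiplied by bin number.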

Variants of: B1
Assay: protein stability index of a GFP-peptide fusion (GPS, HEK-293T) (PSI 1-6); higher = more stable
Conditions: c terminus: a fixed tail appended
For FLYQLPFRGDDGIFDDNFIEERKQ, the protein stability index was 2.28.
For FLRQQPFRGDDGIFDDNFIEERKQ, the protein stability index was 3.72.
FLRQGPFRGDDGIFDDNFIEERKQ gave a protein stability index of 3.74.
With FLRQRPFRGDDGIFDDNFIEERKQ the protein stability index was 3.99.
FLRQLPFRGDDGIFDDNFIEERKL gave a protein stability index of 2.79.
In the case of FLRQLPFRGDDGIFDDNFPEERKQ, the protein stability index is reported as 4.04.
Variant FLRQLPFRGDDGIFDDNFSEERKQ has a protein stability index of 3.67.
With FLRQLPFRGDDGIFCDNFIEERKQ the protein stability index was 2.99.
For FLRQLPFRGDDGIFADNFIEERKQ, the protein stability index was 3.45.
Variant FLRQLPFRGDDGIFVDNFIEERKQ has a protein stability index of 2.65.
Variant FLRQLPFRGDDGITDDNFIEERKQ has a protein stability index of 3.86.
In the case of FLRQLPFRGDDGIEDDNFIEERKQ, the protein stability index is reported as 4.56.
With FLRQLPFRGDDGIFDDNFIKERKQ the protein stability index was 3.74.
For FLRQLPFRGDDGIFDDNFINERKQ, the protein stability index was 2.92.
For FLRQLPFRGDDGIFDDNFISERKQ, the protein stability index was 2.93.
FLRQLPLRGDDGIFDDNFIEERKQ showed a protein stability index of 3.23.
With FLRQLPFRGDDGIFDDNFIEEQKQ the protein stability index was 3.27.
FLRQLPFRGDDGIFDDNFIEEPKQ showed a protein stability index of 3.
In the case of FLRQLPFRGDDGIFDDNFIEELKQ, the protein stability index is reported as 2.87.
FLRQLPFKGDDGIFDDNFIEERKQ gave a protein stability index of 3.69.
FLRWLPFRGDDGIFDDNFIEERKQ showed a protein stability index of 2.7.
FLRNLPFRGDDGIFDDNFIEERKQ showed a protein stability index of 2.13.
For FLRQLPFRGDDGIFDDNFIEARKQ, the protein stability index was 3.12.
FLRQLPFRKDDGIFDDNFIEERKQ showed a protein stability index of 3.39.
MLRQLPFRGDDGIFDDNFIEERKQ showed a protein stability index of 3.56.
In the case of CLRQLPFRGDDGIFDDNFIEERKQ, the protein stability index is reported as 4.1.
In the case of NLRQLPFRGDDGIFDDNFIEERKQ, the protein stability index is reported as 4.44.
In the case of FLRQLPFRGDDGVFDDNFIEERKQ, the protein stability index is reported as 3.3.
For FLRQLPFRGDDGHFDDNFIEERKQ, the protein stability index was 3.67.
FLRQLRFRGDDGIFDDNFIEERKQ gave a protein stability index of 3.1.

Variants of: B2
Assay: as above
Conditions: c terminus: a fixed tail appended
For SAPKTFQAYLDDCHRRYSCAHCRA, the protein stability index was 2.18.
Variant SHPKTFQAYLDDCHRRYSCAHCRA has a protein stability index of 2.
SMPKTFQAYLDDCHRRYSCAHCRA showed a protein stability index of 1.7.
For SWPKTFQAYLDDCHRRYSCAHCRA, the protein stability index was 2.58.
Variant SQPKTFQAYLDDCHRRYSCAHCRA has a protein stability index of 2.31.
With SFPKTFQAYLDDCHRRYSCAHCRA the protein stability index was 1.88.
SSPKTFQAYLDDCHRRYSCAHCRA gave a protein stability index of 1.8.
SLPKTFQAYLDDCHRRYSCAHCRA showed a protein stability index of 1.85.
With STPKTFQAYLDDCHRRYSCAHCRA the protein stability index was 2.19.
In the case of SIPKTFQAYLDDCHRRYSCAHCRA, the protein stability index is reported as 1.63.
SRPKTFQAYLDDCHRRYSCAHCRA gave a protein stability index of 1.89.
Work on SDPKTFQAYLDDCHRRYSCAHCRA yielded a protein stability index of 2.89.
SVPKTFQAYLDDCHRRYSCAHCRA showed a protein stability index of 2.22.
SNPKTFQAYLDDCHRRYSCAHCRA showed a protein stability index of 2.34.
For SGPKTFQAYLDDCHRRYSCAHCRA, the protein stability index was 2.34.
In the case of SYPKTFQAYLDDCHRRYSCAHCRA, the protein stability index is reported as 1.85.
For SPPKTFQAYLDDCHRRYSCAHCRA, the protein stability index was 1.95.
With SCPKTFQAYLDDCHRRYSCAHCRA the protein stability index was 2.38.
SEPKTFQAYLDDCHRRYSCAHCRA gave a protein stability index of 1.63.
SKPKTFQACLDDCHRRYSCAHCRA gave a protein stability index of 2.33.
SKPKTFQADLDDCHRRYSCAHCRA gave a protein stability index of 2.38.
With SKPKTFQAHLDDCHRRYSCAHCRA the protein stability index was 1.88.
Variant SKPKTFQAELDDCHRRYSCAHCRA has a protein stability index of 3.
With SKPKTFQAFLDDCHRRYSCAHCRA the protein stability index was 2.67.
Work on SKPKTFQAALDDCHRRYSCAHCRA yielded a protein stability index of 2.19.
Variant SKPKTFQAGLDDCHRRYSCAHCRA has a protein stability index of 2.85.
Work on SKPKSFQAYLDDCHRRYSCAHCRA yielded a protein stability index of 1.77.
Work on SKPKLFQAYLDDCHRRYSCAHCRA yielded a protein stability index of 2.37.
Variant SKPKKFQAYLDDCHRRYSCAHCRA has a protein stability index of 2.25.
Work on SKPKRFQAYLDDCHRRYSCAHCRA yielded a protein stability index of 2.85.
Variant SKPKWFQAYLDDCHRRYSCAHCRA has a protein stability index of 1.99.
For SKPKVFQAYLDDCHRRYSCAHCRA, the protein stability index was 2.05.
SKPKHFQAYLDDCHRRYSCAHCRA showed a protein stability index of 2.57.
For SKPKMFQAYLDDCHRRYSCAHCRA, the protein stability index was 2.56.
Work on SKPKCFQAYLDDCHRRYSCAHCRA yielded a protein stability index of 2.33.
SKPKIFQAYLDDCHRRYSCAHCRA gave a protein stability index of 2.75.
In the case of SKPKDFQAYLDDCHRRYSCAHCRA, the protein stability index is reported as 2.94.
With SKPKFFQAYLDDCHRRYSCAHCRA the protein stability index was 1.84.
Variant SKPKQFQAYLDDCHRRYSCAHCRA has a protein stability index of 2.55.
Work on SKPKGFQAYLDDCHRRYSCAHCRA yielded a protein stability index of 2.11.
Variant SKPKPFQAYLDDCHRRYSCAHCRA has a protein stability index of 2.43.
With SKPKAFQAYLDDCHRRYSCAHCRA the protein stability index was 2.46.
Variant SKPKNFQAYLDDCHRRYSCAHCRA has a protein stability index of 2.53.
SKPKEFQAYLDDCHRRYSCAHCRA gave a protein stability index of 3.37.
With SKPKYFQAYLDDCHRRYSCAHCRA the protein stability index was 1.97.
With SKPKTFQLYLDDCHRRYSCAHCRA the protein stability index was 2.4.
SKPKTFQVYLDDCHRRYSCAHCRA gave a protein stability index of 2.23.
Work on SKPKTFQNYLDDCHRRYSCAHCRA yielded a protein stability index of 2.49.
Work on SKPKTFQMYLDDCHRRYSCAHCRA yielded a protein stability index of 1.66.
SKPKTFQSYLDDCHRRYSCAHCRA showed a protein stability index of 1.82.
In the case of SKPKTFQGYLDDCHRRYSCAHCRA, the protein stability index is reported as 1.91.
SKPKTFQRYLDDCHRRYSCAHCRA gave a protein stability index of 1.88.
For SKPKTFQYYLDDCHRRYSCAHCRA, the protein stability index was 2.02.
Work on SKPKTFQKYLDDCHRRYSCAHCRA yielded a protein stability index of 2.31.
SKPKTFQHYLDDCHRRYSCAHCRA gave a protein stability index of 2.51.
For SKPKTFQTYLDDCHRRYSCAHCRA, the protein stability index was 2.1.
SKPKTFQIYLDDCHRRYSCAHCRA gave a protein stability index of 1.81.
Work on SKPKTFQEYLDDCHRRYSCAHCRA yielded a protein stability index of 1.92.
Variant SKPKTFQDYLDDCHRRYSCAHCRA has a protein stability index of 1.54.
For SKPKTFQFYLDDCHRRYSCAHCRA, the protein stability index was 1.78.
Variant SKPKTFQWYLDDCHRRYSCAHCRA has a protein stability index of 2.09.
Variant SKPKTFQPYLDDCHRRYSCAHCRA has a protein stability index of 2.62.
Work on SKPKTFQCYLDDCHRRYSCAHCRA yielded a protein stability index of 2.32.
Work on SKPKTFQQYLDDCHRRYSCAHCRA yielded a protein stability index of 2.5.
